Measurements published in PMC6421407, “Activation of GCN2 by the ribosomal P-stalk” (Proceedings of the National Academy of Sciences of the …, 2019).

What was measured:
[1] = target: human general control nonderepressible 2 (GCN2), full-length, StrepII-tagged (human) (UniProt Q9P2K8)
[2] = target: the molecule itself; assay: SEC-MALS; purified GCN2 in solution; 392 kDa measured against 384 kDa theoretical for a homodimer

## ribosomes purified from rabbit reticulocyte lysate (from UniProt G1SPK4 1-318; P19943 1-44; G1TT27 1-257) (complex)
[1]
  EC50 of stimulation of eIF2α phosphorylation by GCN2, titration of ribosomes: 25 nM
  fold stimulation of eIF2α phosphorylation by GCN2, titration of ribosomes: 20 fold

B1: human general control nonderepressible 2 (GCN2), full-length, StrepII-tagged (enzyme, UniProt Q9P2K8 1-1649, looked up)
chain: MAGGRGAPGRGRDEPPESYPQRQDHELQALEAIYGADFQDLRPDACGPVKEPPEINLVLYPQGLTGEEVYVKVDLRVKCPPTYPDVVPEIELKNAKGLSNESVNLLKSRLEELAKKHCGEVMIFELAYHVQSFLSEHNKPPPKSFHEEMLERRAQEEQQRLLEAKRKEEQEQREILHEIQRRKEEIKEEKKRKEMAKQERLEIASLSNQDHTSKKDPGGHRTAAILHGGSPDFVGNGKHRANSSGRSRRERQYSVCNSEDSPGSCEILYFNMGSPDQLMVHKGKCIGSDEQLGKLVYNALETATGGFVLLYEWVLQWQKKMGPFLTSQEKEKIDKCKKQIQGTETEFNSLVKLSHPNVVRYLAMNLKEQDDSIVVDILVEHISGVSLAAHLSHSGPIPVHQLRRYTAQLLSGLDYLHSNSVVHKVLSASNVLVDAEGTVKITDYSISKRLADICKEDVFEQTRVRFSDNALPYKTGKKGDVWRLGLLLLSLSQGQECGEYPVTIPSDLPADFQDFLKKCVCLDDKERWSPQQLLKHSFINPQPKMPLVEQSPEDSEGQDYVETVIPSNRLPSAAFFSETQRQFSRYFIEFEELQLLGKGAFGAVIKVQNKLDGCCYAVKRIPINPASRQFRRIKGEVTLLSRLHHENIVRYYNAWIERHERPAGPGTPPPDSGPLAKDDRAARGQPASDTDGLDSVEAAAPPPILSSSVEWSTSGERSASARFPATGPGSSDDEDDDEDEHGGVFSQSFLPASDSESDIIFDNEDENSKSQNQDEDCNEKNGCHESEPSVTTEAVHYLYIQMEYCEKSTLRDTIDQGLYRDTVRLWRLFREILDGLAYIHEKGMIHRDLKPVNIFLDSDDHVKIGDFGLATDHLAFSADSKQDDQTGDLIKSDPSGHLTGMVGTALYVSPEVQGSTKSAYNQKVDLFSLGIIFFEMSYHPMVTASERIFVLNQLRDPTSPKFPEDFDDGEHAKQKSVISWLLNHDPAKRPTATELLKSELLPPPQMEESELHEVLHHTLTNVDGKAYRTMMAQIFSQRISPAIDYTYDSDILKGNFSIRTAKMQQHVCETIIRIFKRHGAVQLCTPLLLPRNRQIYEHNEAALFMDHSGMLVMLPFDLRIPFARYVARNNILNLKRYCIERVFRPRKLDRFHPKELLECAFDIVTSTTNSFLPTAEIIYTIYEIIQEFPALQERNYSIYLNHTMLLKAILLHCGIPEDKLSQVYIILYDAVTEKLTRREVEAKFCNLSLSSNSLCRLYKFIEQKGDLQDLMPTINSLIKQKTGIAQLVKYGLKDLEEVVGLLKKLGIKLQVLINLGLVYKVQQHNGIIFQFVAFIKRRQRAVPEILAAGGRYDLLIPQFRGPQALGPVPTAIGVSIAIDKISAAVLNMEESVTISSCDLLVVSVGQMSMSRAINLTQKLWTAGITAEIMYDWSQSQEELQEYCRHHEITYVALVSDKEGSHVKVKSFEKERQTEKRVLETELVDHVLQKLRTKVTDERNGREASDNLAVQNLKGSFSNASGLFEIHGATVVPIVSVLAPEKLSASTRRRYETQVQTRLQTSLANLHQKSSEIEILAVDLPKETILQFLSLEWDADEQAFNTTVKQLLSRLPKQRYLKLVCDEIYNIKVEKKVSVLFLYSYRDDYYRILF
notes: General control nonderepressible 2 (GCN2), human, full length; Homodimer by SEC-MALS (392 kDa measured, 384 kDa theoretical); also called construct A; full-length GCN2
[2]
  stoichiometry N: 2
